Source: PMC10164584, “Structural basis for the tRNA-dependent activation of the terminal complex of selenocysteine synthesis in humans” (Nucleic Acids Research, 2023)

Key:
human SepSecS = biological target: T1, human SepSecS (Homo sapiens, UniProt Q9HD40, V491A); conditions: holo SepSecS without bound tRNA; P-loop site near active site
T1 sequence (Q9HD40 1-501 V491A): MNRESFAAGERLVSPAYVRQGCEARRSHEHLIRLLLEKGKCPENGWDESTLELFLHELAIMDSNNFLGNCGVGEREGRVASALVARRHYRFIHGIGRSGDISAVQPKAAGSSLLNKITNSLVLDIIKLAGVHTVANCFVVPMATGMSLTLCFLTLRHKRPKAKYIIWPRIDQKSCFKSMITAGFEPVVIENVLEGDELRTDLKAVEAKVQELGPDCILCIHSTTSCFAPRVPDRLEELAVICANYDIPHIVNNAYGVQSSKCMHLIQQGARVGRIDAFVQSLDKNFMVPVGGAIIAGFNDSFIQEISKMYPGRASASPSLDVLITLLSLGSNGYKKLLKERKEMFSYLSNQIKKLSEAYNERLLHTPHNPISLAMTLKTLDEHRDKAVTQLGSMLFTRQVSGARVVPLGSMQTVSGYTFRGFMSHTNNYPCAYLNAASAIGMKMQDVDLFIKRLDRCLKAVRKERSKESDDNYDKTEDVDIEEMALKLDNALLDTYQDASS

Q399A SepSecS (human) = experiment: MST; conditions: MST: 20 mM HEPES pH 8.0, 150 mM NaCl, 5% glycerol, 0.05% Tween-20, 0.4 mg/ml BSA, room temperature, 5 nM labeled SepSecS; van't Hoff series 24-34 C
SepSecS E37L (human) = experiment: MST; conditions: MST: 20 mM HEPES pH 8.0, 150 mM NaCl, 5% glycerol, 0.05% Tween-20, 0.4 mg/ml BSA, room temperature, 5 nM labeled SepSecS; van't Hoff series 24-34 C
SepSecS F396V (human) = experiment: MST; conditions: MST: 20 mM HEPES pH 8.0, 150 mM NaCl, 5% glycerol, 0.05% Tween-20, 0.4 mg/ml BSA, room temperature, 5 nM labeled SepSecS; van't Hoff series 24-34 C
SepSecS H30A (human) = experiment: MST; conditions: MST: 20 mM HEPES pH 8.0, 150 mM NaCl, 5% glycerol, 0.05% Tween-20, 0.4 mg/ml BSA, room temperature, 5 nM labeled SepSecS; van't Hoff series 24-34 C
SepSecS K38M (human) = experiment: MST; conditions: MST: 20 mM HEPES pH 8.0, 150 mM NaCl, 5% glycerol, 0.05% Tween-20, 0.4 mg/ml BSA, room temperature, 5 nM labeled SepSecS; van't Hoff series 24-34 C
SepSecS R26A (human) = experiment: MST; conditions: MST: 20 mM HEPES pH 8.0, 150 mM NaCl, 5% glycerol, 0.05% Tween-20, 0.4 mg/ml BSA, room temperature, 5 nM labeled SepSecS; van't Hoff series 24-34 C
SepSecS R33A (human) = experiment: MST; conditions: MST: 20 mM HEPES pH 8.0, 150 mM NaCl, 5% glycerol, 0.05% Tween-20, 0.4 mg/ml BSA, room temperature, 5 nM labeled SepSecS; van't Hoff series 24-34 C
SepSecS R398A (human) = experiment: MST; conditions: MST: 20 mM HEPES pH 8.0, 150 mM NaCl, 5% glycerol, 0.05% Tween-20, 0.4 mg/ml BSA, room temperature, 5 nM labeled SepSecS; van't Hoff series 24-34 C
SepSecS S27A (human) = experiment: MST; conditions: MST: 20 mM HEPES pH 8.0, 150 mM NaCl, 5% glycerol, 0.05% Tween-20, 0.4 mg/ml BSA, room temperature, 5 nM labeled SepSecS; van't Hoff series 24-34 C
SepSecS S393A (human) = experiment: MST; conditions: MST: 20 mM HEPES pH 8.0, 150 mM NaCl, 5% glycerol, 0.05% Tween-20, 0.4 mg/ml BSA, room temperature, 5 nM labeled SepSecS; van't Hoff series 24-34 C
SepSecS T397V (human) = experiment: MST; conditions: MST: 20 mM HEPES pH 8.0, 150 mM NaCl, 5% glycerol, 0.05% Tween-20, 0.4 mg/ml BSA, room temperature, 5 nM labeled SepSecS; van't Hoff series 24-34 C
SepSecS WT (human) = experiment: MST; conditions: MST: 20 mM HEPES pH 8.0, 150 mM NaCl, 5% glycerol, 0.05% Tween-20, 0.4 mg/ml BSA, room temperature, 5 nM labeled SepSecS; van't Hoff series 24-34 C

O=P(O)(O)O [phosphate ion]
X-ray crystallography, 2.25 A (human SepSecS): structure of holo SepSecS possessed a phosphate ion bound to the P-loop

tRNASec WT (unacylated)
Kd (Q399A SepSecS (human)): 567 nM
Kd (SepSecS E37L (human)): 166 nM
Kd (SepSecS F396V (human)): 44.1 nM
Kd (SepSecS H30A (human)): 166 nM
Kd (SepSecS K38M (human)): 1670 nM
Kd (SepSecS R26A (human)): 516 nM
Kd (SepSecS R33A (human)): 28.9 nM
Kd (SepSecS R398A (human)): 2530 nM
Kd (SepSecS S27A (human)): 133 nM
Kd (SepSecS S393A (human)): 197 nM
Kd (SepSecS T397V (human)): 62.8 nM
Kd (SepSecS WT (human)): 134 nM
